In patent US8383581B2, “Short-chain peptides as parathyroid hormone (PTH) receptor agonist” (Cadila Healthcare Limited, priority 2009, dated 2013):
Where no end group is shown, it is not given here. [ ]: non-standard residue; d: D form. Arg(NO2) = N=C(NCCC[C@H](N)C(=O)O)N[N+](=O)[O-]; αMePhe(2,6-F2) = C[C@](N)(Cc1c(F)cccc1F)C(=O)O; αMePhe(2-F) = C[C@](N)(Cc1ccccc1F)C(=O)O; hArg = N=C(N)NCCCC[C@H](N)C(=O)O; hCit = NC(=O)NCCCC[C@H](N)C(=O)O; αMeF = C[C@](N)(Cc1ccccc1)C(=O)O; Cit = NC(=O)NCCC[C@H](N)C(=O)O; Nle = CCCC[C@H](N)C(=O)O; Ac5c = NC1(C(=O)O)CCCC1; Aib = CC(C)(N)C(=O)O

T1: rat PTH-1R (rat PTHR endogenously expressed on UMR-106 rat osteosarcoma cells) (rat, UniProt P25961 27-591)
T1 sequence (looked up): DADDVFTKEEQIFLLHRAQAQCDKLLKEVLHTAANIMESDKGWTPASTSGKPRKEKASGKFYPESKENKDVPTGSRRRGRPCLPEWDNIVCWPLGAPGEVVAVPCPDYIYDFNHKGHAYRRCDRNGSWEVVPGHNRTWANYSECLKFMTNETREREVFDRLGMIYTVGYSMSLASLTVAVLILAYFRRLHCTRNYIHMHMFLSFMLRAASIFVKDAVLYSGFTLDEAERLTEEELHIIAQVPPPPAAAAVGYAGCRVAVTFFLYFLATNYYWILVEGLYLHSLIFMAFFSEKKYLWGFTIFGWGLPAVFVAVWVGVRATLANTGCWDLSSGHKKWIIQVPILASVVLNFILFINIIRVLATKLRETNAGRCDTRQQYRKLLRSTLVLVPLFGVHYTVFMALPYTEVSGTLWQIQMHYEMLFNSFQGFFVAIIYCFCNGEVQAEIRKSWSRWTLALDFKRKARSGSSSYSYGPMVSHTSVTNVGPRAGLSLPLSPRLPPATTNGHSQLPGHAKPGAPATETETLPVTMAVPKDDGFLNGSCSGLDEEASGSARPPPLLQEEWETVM


The binders below were run against T1, rat PTH-1R (rat PTHR endogenously …) (assay: cell-based or functional assay).

Row | Binder | cAMP released with respect to control, 1 nM peptide, UMR-106 cells | cAMP released with respect to control, 10 nM peptide, UMR-106 cells | cAMP released with respect to control, 100 nM peptide, UMR-106 cells
1 | [Aib]V[Aib]EIQ[αMePhe(2-F)][Nle]HQ[Aib]A[Aib][αMePhe(2-F)] [Seq. ID. 553] | 38 percent of control | 98 percent of control | 116 percent of control
2 | [Aib]V[Aib]EIQ[αMePhe(2,6-F2)][Nle]HQ[hCit][Aib][Arg(NO2)][αMePhe(2,6-F2)] [Seq. ID. 470] | 36 percent of control | 88 percent of control | 116 percent of control
3 | [Ac5c]V[Aib]EIQLMHQ[hArg][Aib]K[αMeF] [Seq. ID. 20] | 79 percent of control | 111 percent of control | 121 percent of control
4 | [Aib]V[Aib]EIQ[αMePhe(2-F)][Nle]HQ[αMePhe(2,6-F2)][Aib][αMePhe(2,6-F2)][αMePhe(2,6-F2)] [Seq. ID. 514] | 19 percent of control | 64 percent of control | 80 percent of control
5 | [Aib]V[Aib]EIQ[αMePhe(2,6-F2)][Nle]HQ[αMePhe(2,6-F2)][Aib][Cit][αMePhe(2,6-F2)] [Seq. ID. 486] | 34 percent of control | 82 percent of control | 104 percent of control
6 | [Ac5c]V[Aib]EIQ[αMePhe(2,6-F2)][Nle]HQ[αMePhe(2,6-F2)]A[Cit][αMePhe(2-F)] [Seq. ID. 479] | 48 percent of control | 99 percent of control | 112 percent of control
7 | [Ac5c]V[Aib]EIQ[αMePhe(2-F)][Nle]HQ[Aib][Aib][Cit][αMePhe(2-F)] [Seq. ID. 540] | 16 percent of control | 57 percent of control | 75 percent of control
8 | [Aib]V[Aib]EIQ[αMePhe(2-F)][Nle]HQ[αMePhe(2,6-F2)]A[Arg(NO2)][αMePhe(2-F)] [Seq. ID. 521] | 21 percent of control | 51 percent of control | 69 percent of control
9 | [Aib]V[Aib]EIQ[αMePhe(2,6-F2)][Nle]HQ[αMePhe(2,6-F2)]A[Aib][αMePhe(2,6-F2)] [Seq. ID. 501] | 28 percent of control | 71 percent of control | 87 percent of control
10 | SVSEIQLMHNLGKHLNSMERVEWLRKKLQDVHNF [PTH (1-34)] | 41 percent of control | 97 percent of control | 100 percent of control
